# B1: RapZ-CTD (154–284) (domain or fragment, Escherichia coli, UniProt P0A894 154-284, looked up)
# chain: GKRERELTMVFESFGFKHGIPIDADYVFDVRFLPNPHWDPKLRPMTGLDKPVAAFLDRHTEVHNFIYQTRSYLELWLPMLETNNRSYLTVAIGCTGGKHRSVYIAEQLADYFRSRGKNVQSRHRTLEKRKP
# notes: RapZ, Escherichia coli, C-terminal domain, residues 154-284; also called C-terminal domain of RapZ; source: E. coli Rosetta, purified (Strep Trap, MonoS, gel filtration)
# B2: full length Escherichia coli RapZ (natural protein, UniProt P0A894 1-284, looked up)
# chain: MVLMIVSGRSGSGKSVALRALEDMGFYCVDNLPVVLLPDLARTLADREISAAVSIDVRNMPESPEIFEQAMSNLPDAFSPQLLFLDADRNTLIRRYSDTRRLHPLSSKNLSLESAIDKESDLLEPLRSRADLIVDTSEMSVHELAEMLRTRLLGKRERELTMVFESFGFKHGIPIDADYVFDVRFLPNPHWDPKLRPMTGLDKPVAAFLDRHTEVHNFIYQTRSYLELWLPMLETNNRSYLTVAIGCTGGKHRSVYIAEQLADYFRSRGKNVQSRHRTLEKRKP
# notes: RapZ (formerly YhbJ), Escherichia coli, full length, residues 1-284; also called YhbJ; full-length RapZ (1–284); source: E. coli Rosetta, purified (Strep Trap, heparin, gel filtration)
# Tests used:
# [1] = test system: RapZ full length (Strep-tag cleaved) (Escherichia coli); experiment: BLI; settings: 1 mM Mg2+; Kd values only in figure; incomplete dissociation; 5' biotin; BLI: 25 mM Tris pH 7.5, 50 mM NaCl, 50 mM KCl, 1 mM MgCl2, 1 mM DTT, temperature not stated; EMSA (GlmY): 10 mM Tris pH 7.0, 100 mM KCl, 10 mM MgCl2, 1 ug …
# [2] = test system: RapZ-CTD (Strep-tag cleaved) (Escherichia coli); experiment: BLI; settings: 1 mM Mg2+; Kd values only in figure; incomplete dissociation; 5' biotin; BLI: 25 mM Tris pH 7.5, 50 mM NaCl, 50 mM KCl, 1 mM MgCl2, 1 mM DTT, temperature not stated; EMSA (GlmY): 10 mM Tris pH 7.0, 100 mM KCl, 10 mM MgCl2, 1 ug …; scale: fold higher affinity than full-length RapZ
# [3] = target: the molecule itself; experiment: SEC-MALS + AUC; RapZ-CTD alone. SEC-MALS: 30 μM on Superdex 200 10/300 GL, 25 mM Tris pH 7.5, 200 mM KCl, 1 mM TCEP, 25°C. Sedimentation velocity AUC: 0.5–1 mg/ml, 20°C, 50 000 rpm
# [4] = target: the molecule itself; experiment: SEC-MALS; full-length RapZ alone, 30 μM on Superdex 200 10/300 GL, 25°C
Molecule,relative binding affinity (relative Kd-type affinity (reference)) [1],relative binding affinity [2],stoichiometry N [3],stoichiometry N [4]
GlmY processed (BLI),1,2,,
GlmZ full length (BLI),1,2,,
GlmZ processed (BLI),1,2,,
B1,,,2,
B2,,,,4

# From PMC5737377, “Structural insights into RapZ-mediated regulation of bacterial amino-sugar metabolism” (Nucleic Acids Research, 2017)
